Substitutions are numbered along the chain they refer to. In names and notes the source's numbering stands.
B1: CtpA(ΔC6) (enzyme)
chain: SAPLPLDELRTFAEVLDRVKAAYVEPVDDKTLLENAIKGMLSNLDPHSAYLGPEDFAELQESTSGEFGGLGIEVGSEDGFIKVVSPIDDTPAARAGIQPGDLIVQIDGKPTKGQSMTEAVDSMRGKAGSPITLTIVRDGGRPFDVELKRAIIKVKSVKSQVLEPGYAYLRITQFQVNTGEEVVKALNQLRKDNKGRLKGLVLDLRNNPGGVLQSAVEVADAFLTKGLIVYTKGRIANSELRFSADPADPSDKVPLVVLINGGSASAAEIVAGALQDQKRAILMGTDSFGKGSVQTVLPLNNDRALKLTTALYYTPNGRSIQAQGIVPDIEVGRAKVTQERSSFEGFKEADLQGHLANGNGGADRPTGKRAAPSERPQDSDYQLSQALSLLKGL
notes: Pseudomonas aeruginosa CtpA, ΔN37 construct (from amino acid 38) with the last six residues Ser-431 to Asn-436 removed; also called CtpA(ΔC6) dimer; source: E. coli BL21(DE3), purified (HiTrap-Ni, thrombin, HiTrap-Q, Superdex 200); not shown: His6, N-terminal, cleaved
B2: CtpA-L426K L430K (enzyme)
chain: SAPLPLDELRTFAEVLDRVKAAYVEPVDDKTLLENAIKGMLSNLDPHSAYLGPEDFAELQESTSGEFGGLGIEVGSEDGFIKVVSPIDDTPAARAGIQPGDLIVQIDGKPTKGQSMTEAVDSMRGKAGSPITLTIVRDGGRPFDVELKRAIIKVKSVKSQVLEPGYAYLRITQFQVNTGEEVVKALNQLRKDNKGRLKGLVLDLRNNPGGVLQSAVEVADAFLTKGLIVYTKGRIANSELRFSADPADPSDKVPLVVLINGGSASAAEIVAGALQDQKRAILMGTDSFGKGSVQTVLPLNNDRALKLTTALYYTPNGRSIQAQGIVPDIEVGRAKVTQERSSFEGFKEADLQGHLANGNGGADRPTGKRAAPSERPQDSDYQLSQALSKLKGKSVTRGN
notes: Pseudomonas aeruginosa CtpA, ΔN37 construct (amino acid 38 to the C terminus, Asn-436) with L426K and L430K; also called LLKK; source: E. coli BL21(DE3), purified (HiTrap-Ni, thrombin, HiTrap-Q, Superdex 200); not shown: His6, N-terminal, cleaved
B3: CtpA-L426A L430A (enzyme)
chain: B2 chain with K389A, K393A
notes: Pseudomonas aeruginosa CtpA, ΔN37 construct (amino acid 38 to the C terminus, Asn-436) with L426A and L430A; also called LLAA; source: E. coli BL21(DE3), purified (HiTrap-Ni, thrombin, HiTrap-Q, Superdex 200); not shown: His6, N-terminal, cleaved

Molecular target: the molecule itself
Experiment: SEC; gel filtration of CtpA proteins, Superdex 200 prep-grade (16 × 600 mm), 10 mM Tris pH 8.0, 150 mM NaCl

Row | Protein | stoichiometry N
1 | B1 | 2
2 | B2 | ~2
3 | B3 | ~2

Source: article PMC8764530, “Pseudomonas aeruginosa C-Terminal Processing Protease CtpA Assembles into a Hexameric Structure That Requires Activation by a Spiral-Shaped Lipoprotein-Binding Partner” (mBio, 2022)
